B1: C31-2-IgG1(N297A)-LC:GpL (antibody)
light: EVKLVPRQLDYKDDDDKELQAVVTQESALTTSPGETVTLTCRSSTGAVTTSNYANWVQEKPDHLFTGLIGGTNNRAPGVPARFSGSVIGDKAALTITGAQTEDEAIYFCALWYSNHWVFGGGTKLTVLGGSEIKRTVAAPSVFIFPPSDEQLKSGTASVVCLLNNFYPREAKVQWKVDNALQSGNSQESVTEQDSKDSTYSLSSTLTLSKADYEKHKVYACEVTHQGLSSPVTKSFNRGECLEKPTENNEDFNIVAVASNFATTDLDADRGKLPGKKLPLEVLKEMEANARKAGCTRGCLICLSHIKCTPKMKKFIPGRCHTYEGDKESAQGGIGEAIVDIPEIPGFKDLEPMEQFIAQVDLCVDCTTGCLKGLANVQCSDLLKKWLPQRCATFASKIQGQVDKIKGAGGD
heavy: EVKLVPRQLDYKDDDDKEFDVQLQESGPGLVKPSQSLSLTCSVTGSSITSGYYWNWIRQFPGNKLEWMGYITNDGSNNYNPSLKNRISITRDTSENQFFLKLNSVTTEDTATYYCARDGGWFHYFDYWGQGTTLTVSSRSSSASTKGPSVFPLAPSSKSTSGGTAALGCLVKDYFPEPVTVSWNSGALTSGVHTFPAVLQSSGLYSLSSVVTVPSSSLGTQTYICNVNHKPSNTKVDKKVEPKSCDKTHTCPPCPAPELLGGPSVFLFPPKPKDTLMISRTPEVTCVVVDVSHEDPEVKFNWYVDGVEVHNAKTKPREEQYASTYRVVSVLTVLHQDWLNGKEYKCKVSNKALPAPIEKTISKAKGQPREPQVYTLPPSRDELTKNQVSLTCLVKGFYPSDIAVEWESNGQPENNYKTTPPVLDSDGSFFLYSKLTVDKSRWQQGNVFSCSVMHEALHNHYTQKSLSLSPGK
notes: copies: 2 + 2
B2: C4(scFv)-IgG1(N297A) (antibody)
light: MNFGFSLIFLVLVLKGVQCEVKLVPRQLDYKDDDDKEFQVQLLQSGPELVKPGASVKLSCKASGYSFTSYDINWVKQRPGQGLEWVGWIYPRDGDTKYNEKFKGKAILTVDTSSNTAYMNLHSLTSEDSAVYFCARLTGPYWYFDVWGTGTTVTVSSRSSTKGPKLEEGEFSEAQLDIVMTQSHKFMSTSVGDRVSITCKASQDVDTAVAWYQQKPGQSPKLLIYWASTRHTGVPDRFTGSGSGTDYTLTISSVQAEDLARYYCQQYYSVPPTFGGGTKLEIKGSEIKRTVAAPSVFIFPPSDEQLKSGTASVVCLLNNFYPREAKVQWKVDNALQSGNSQESVTEQDSKDSTYSLSSTLTLSKADYEKHKVYACEVTHQGLSSPVTKSFNRGEC
heavy: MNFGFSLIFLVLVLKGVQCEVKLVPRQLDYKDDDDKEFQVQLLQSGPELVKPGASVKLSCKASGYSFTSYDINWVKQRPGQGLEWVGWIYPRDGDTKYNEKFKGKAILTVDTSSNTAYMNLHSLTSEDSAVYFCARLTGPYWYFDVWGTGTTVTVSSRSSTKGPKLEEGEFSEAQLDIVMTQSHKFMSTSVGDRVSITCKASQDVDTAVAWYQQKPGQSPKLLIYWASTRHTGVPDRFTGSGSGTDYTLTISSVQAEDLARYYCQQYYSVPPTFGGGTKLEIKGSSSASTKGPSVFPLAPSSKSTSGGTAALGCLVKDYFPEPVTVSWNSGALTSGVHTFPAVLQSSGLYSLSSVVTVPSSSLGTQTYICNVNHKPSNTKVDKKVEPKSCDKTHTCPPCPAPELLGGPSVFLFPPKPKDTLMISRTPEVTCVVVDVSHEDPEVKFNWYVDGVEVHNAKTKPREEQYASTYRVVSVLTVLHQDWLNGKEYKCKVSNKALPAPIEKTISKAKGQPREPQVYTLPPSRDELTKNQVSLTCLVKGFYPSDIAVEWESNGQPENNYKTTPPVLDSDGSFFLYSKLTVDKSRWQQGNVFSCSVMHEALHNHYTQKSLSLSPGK
B3: C4(scFv)-IgG1(N297A)-HC:TNC (antibody)
light: MNFGFSLIFLVLVLKGVQCEVKLVPRQLDYKDDDDKEFQVQLLQSGPELVKPGASVKLSCKASGYSFTSYDINWVKQRPGQGLEWVGWIYPRDGDTKYNEKFKGKAILTVDTSSNTAYMNLHSLTSEDSAVYFCARLTGPYWYFDVWGTGTTVTVSSRSSTKGPKLEEGEFSEAQLDIVMTQSHKFMSTSVGDRVSITCKASQDVDTAVAWYQQKPGQSPKLLIYWASTRHTGVPDRFTGSGSGTDYTLTISSVQAEDLARYYCQQYYSVPPTFGGGTKLEIKGSEIKRTVAAPSVFIFPPSDEQLKSGTASVVCLLNNFYPREAKVQWKVDNALQSGNSQESVTEQDSKDSTYSLSSTLTLSKADYEKHKVYACEVTHQGLSSPVTKSFNRGEC
heavy: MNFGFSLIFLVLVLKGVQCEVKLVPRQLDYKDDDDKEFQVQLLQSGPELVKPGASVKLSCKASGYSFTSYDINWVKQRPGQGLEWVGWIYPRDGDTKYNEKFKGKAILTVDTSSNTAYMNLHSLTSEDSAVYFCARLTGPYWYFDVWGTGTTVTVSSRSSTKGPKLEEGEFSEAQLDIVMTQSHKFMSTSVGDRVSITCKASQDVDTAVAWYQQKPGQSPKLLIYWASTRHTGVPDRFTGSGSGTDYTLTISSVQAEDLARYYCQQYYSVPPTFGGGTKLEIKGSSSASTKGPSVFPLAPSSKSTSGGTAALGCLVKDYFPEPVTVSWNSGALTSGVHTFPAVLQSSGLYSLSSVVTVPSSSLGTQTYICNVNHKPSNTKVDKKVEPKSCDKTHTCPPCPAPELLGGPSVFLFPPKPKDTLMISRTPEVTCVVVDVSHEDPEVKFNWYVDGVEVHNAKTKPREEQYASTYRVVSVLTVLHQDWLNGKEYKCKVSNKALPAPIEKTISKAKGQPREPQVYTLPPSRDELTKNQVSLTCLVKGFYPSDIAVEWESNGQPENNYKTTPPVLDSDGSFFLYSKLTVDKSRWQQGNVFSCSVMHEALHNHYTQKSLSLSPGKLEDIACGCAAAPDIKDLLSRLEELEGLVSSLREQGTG
B4: C4-Fab1 (Fab)
light: MNFGFSLIFLVLVLKGVQCEVKLVPRQLDYKDDDDKELDIVMTQSHKFMSTSVGDRVSITCKASQDVDTAVAWYQQKPGQSPKLLIYWASTRHTGVPDRFTGSGSGTDYTLTISSVQAEDLARYYCQQYYSVPPTFGGGTKLGSEIKRTVAAPSVFIFPPSDEQLKSGTASVVCLLNNFYPREAKVQWKVDNALQSGNSQESVTEQDSKDSTYSLSSTLTLSKADYEKHKVYACEVTHQGLSSPVTKSFNRGEC
heavy: MNFGFSLIFLVLVLKGVQCEVKLVPRQLDYKDDDDKELQVQLLQSGPELVKPGASVKLSCKASGYSFTSYDINWVKQRPGQGLEWVGWIYPRDGDTKYNEKFKGKAILTVDTSSNTAYMNLHSLTSEDSAVYFCARLTGPYWYFDVWGTGTTVTVSSGSSSASTKGPSVFPLAPSSKSTSGGTAALGCLVKDYFPEPVTVSWNSGALTSGVHTFPAVLQSSGLYSLSSVVTVPSSSLGTQTYICNVNHKPSNTKVDKKVEPKSCDKTHT
B5: C4-Fab1-LC:scFvC4 (antibody)
light: MNFGFSLIFLVLVLKGVQCEVKLVPRQLDYKDDDDKELDIVMTQSHKFMSTSVGDRVSITCKASQDVDTAVAWYQQKPGQSPKLLIYWASTRHTGVPDRFTGSGSGTDYTLTISSVQAEDLARYYCQQYYSVPPTFGGGTKLGSEIKRTVAAPSVFIFPPSDEQLKSGTASVVCLLNNFYPREAKVQWKVDNALQSGNSQESVTEQDSKDSTYSLSSTLTLSKADYEKHKVYACEVTHQGLSSPVTKSFNRGECLEQVQLLQSGPELVKPGASVKLSCKASGYSFTSYDINWVKQRPGQGLEWVGWIYPRDGDTKYNEKFKGKAILTVDTSSNTAYMNLHSLTSEDSAVYFCARLTGPYWYFDVWGTGTTVTVSSRSSTKGPKLEEGEFSEAQLDIVMTQSHKFMSTSVGDRVSITCKASQDVDTAVAWYQQKPGQSPKLLIYWASTRHTGVPDRFTGSGSGTDYTLTISSVQAEDLARYYCQQYYSVPPTFGGGTKLEIK
heavy: MNFGFSLIFLVLVLKGVQCEVKLVPRQLDYKDDDDKELQVQLLQSGPELVKPGASVKLSCKASGYSFTSYDINWVKQRPGQGLEWVGWIYPRDGDTKYNEKFKGKAILTVDTSSNTAYMNLHSLTSEDSAVYFCARLTGPYWYFDVWGTGTTVTVSSGSSSASTKGPSVFPLAPSSKSTSGGTAALGCLVKDYFPEPVTVSWNSGALTSGVHTFPAVLQSSGLYSLSSVVTVPSSSLGTQTYICNVNHKPSNTKVDKKVEPKSCDKTHT
B6: C4-IgG1(N297A)-HC:TNC (antibody)
light: MNFGFSLIFLVLVLKGVQCEVKLVPRQLDYKDDDDKELDIVMTQSHKFMSTSVGDRVSITCKASQDVDTAVAWYQQKPGQSPKLLIYWASTRHTGVPDRFTGSGSGTDYTLTISSVQAEDLARYYCQQYYSVPPTFGGGTKLGSEIKRTVAAPSVFIFPPSDEQLKSGTASVVCLLNNFYPREAKVQWKVDNALQSGNSQESVTEQDSKDSTYSLSSTLTLSKADYEKHKVYACEVTHQGLSSPVTKSFNRGEC
heavy: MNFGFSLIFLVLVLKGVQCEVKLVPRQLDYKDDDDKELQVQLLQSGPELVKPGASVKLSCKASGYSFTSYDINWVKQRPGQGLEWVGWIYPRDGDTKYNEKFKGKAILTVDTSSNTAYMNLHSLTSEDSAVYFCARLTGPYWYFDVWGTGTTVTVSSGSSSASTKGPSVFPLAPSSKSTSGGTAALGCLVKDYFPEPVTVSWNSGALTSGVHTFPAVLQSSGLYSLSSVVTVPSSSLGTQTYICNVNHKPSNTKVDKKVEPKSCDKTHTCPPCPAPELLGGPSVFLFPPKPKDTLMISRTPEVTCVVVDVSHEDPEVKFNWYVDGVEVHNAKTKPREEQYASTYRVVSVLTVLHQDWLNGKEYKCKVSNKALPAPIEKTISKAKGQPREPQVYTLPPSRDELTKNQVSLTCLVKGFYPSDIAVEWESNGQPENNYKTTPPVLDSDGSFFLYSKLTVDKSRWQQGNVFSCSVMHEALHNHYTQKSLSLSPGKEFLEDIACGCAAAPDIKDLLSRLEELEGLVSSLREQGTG
B7: C4-Fab2 (antibody)
light: MNFGFSLIFLVLVLKGVQCEVKLVPRQLDYKDDDDKELDIVMTQSHKFMSTSVGDRVSITCKASQDVDTAVAWYQQKPGQSPKLLIYWASTRHTGVPDRFTGSGSGTDYTLTISSVQAEDLARYYCQQYYSVPPTFGGGTKLGSEIKRTVAAPSVFIFPPSDEQLKSGTASVVCLLNNFYPREAKVQWKVDNALQSGNSQESVTEQDSKDSTYSLSSTLTLSKADYEKHKVYACEVTHQGLSSPVTKSFNRGEC
heavy: MNFGFSLIFLVLVLKGVQCEVKLVPRQLQVQLLQSGPELVKPGASVKLSCKASGYSFTSYDINWVKQRPGQGLEWVGWIYPRDGDTKYNEKFKGKAILTVDTSSNTAYMNLHSLTSEDSAVYFCARLTGPYWYFDVWGTGTTVTVSSGSSSASTKGPSVFPLAPSSKSTSGGTAALGCLVKDYFPEPVTVSWNSGALTSGVHTFPAVLQSSGLYSLSSVVTVPSSSLGTQTYICNVNHKPSNTKVDKKVEPKSCDKTHTCPPCPA
B8: C4-IgG1(N297A) (antibody)
light: MNFGFSLIFLVLVLKGVQCEVKLVPRQLDYKDDDDKELDIVMTQSHKFMSTSVGDRVSITCKASQDVDTAVAWYQQKPGQSPKLLIYWASTRHTGVPDRFTGSGSGTDYTLTISSVQAEDLARYYCQQYYSVPPTFGGGTKLGSEIKRTVAAPSVFIFPPSDEQLKSGTASVVCLLNNFYPREAKVQWKVDNALQSGNSQESVTEQDSKDSTYSLSSTLTLSKADYEKHKVYACEVTHQGLSSPVTKSFNRGEC
heavy: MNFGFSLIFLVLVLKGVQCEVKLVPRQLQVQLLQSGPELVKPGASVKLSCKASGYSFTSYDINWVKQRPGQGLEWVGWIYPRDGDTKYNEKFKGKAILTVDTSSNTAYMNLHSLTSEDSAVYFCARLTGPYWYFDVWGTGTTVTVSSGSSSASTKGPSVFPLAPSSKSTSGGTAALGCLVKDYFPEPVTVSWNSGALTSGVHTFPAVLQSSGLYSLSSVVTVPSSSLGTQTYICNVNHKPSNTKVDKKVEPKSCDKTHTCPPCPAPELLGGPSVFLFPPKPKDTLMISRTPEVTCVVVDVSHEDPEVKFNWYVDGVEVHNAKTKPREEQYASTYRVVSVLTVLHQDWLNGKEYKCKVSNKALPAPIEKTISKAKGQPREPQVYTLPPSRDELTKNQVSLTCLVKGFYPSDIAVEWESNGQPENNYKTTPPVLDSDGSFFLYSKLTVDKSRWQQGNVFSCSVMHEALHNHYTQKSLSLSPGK
B9: C4-Fab2-LC:scFvC4 (antibody)
light: MNFGFSLIFLVLVLKGVQCEVKLVPRQLDYKDDDDKELDIVMTQSHKFMSTSVGDRVSITCKASQDVDTAVAWYQQKPGQSPKLLIYWASTRHTGVPDRFTGSGSGTDYTLTISSVQAEDLARYYCQQYYSVPPTFGGGTKLGSEIKRTVAAPSVFIFPPSDEQLKSGTASVVCLLNNFYPREAKVQWKVDNALQSGNSQESVTEQDSKDSTYSLSSTLTLSKADYEKHKVYACEVTHQGLSSPVTKSFNRGECLEQVQLLQSGPELVKPGASVKLSCKASGYSFTSYDINWVKQRPGQGLEWVGWIYPRDGDTKYNEKFKGKAILTVDTSSNTAYMNLHSLTSEDSAVYFCARLTGPYWYFDVWGTGTTVTVSSRSSTKGPKLEEGEFSEAQLDIVMTQSHKFMSTSVGDRVSITCKASQDVDTAVAWYQQKPGQSPKLLIYWASTRHTGVPDRFTGSGSGTDYTLTISSVQAEDLARYYCQQYYSVPPTFGGGTKLEIK
heavy: MNFGFSLIFLVLVLKGVQCEVKLVPRQLQVQLLQSGPELVKPGASVKLSCKASGYSFTSYDINWVKQRPGQGLEWVGWIYPRDGDTKYNEKFKGKAILTVDTSSNTAYMNLHSLTSEDSAVYFCARLTGPYWYFDVWGTGTTVTVSSGSSSASTKGPSVFPLAPSSKSTSGGTAALGCLVKDYFPEPVTVSWNSGALTSGVHTFPAVLQSSGLYSLSSVVTVPSSSLGTQTYICNVNHKPSNTKVDKKVEPKSCDKTHTCPPCPA

In one assay the target is T1, Human TNFR2 (human, UniProt P20333 23-461).
T1 construct: On cells: HeLa-TNFR2, HT1080-Bcl2-TNFR2, transiently transfected HEK293; endogenous on Kym-1 cells; also called huTNFR2; TNFRSF1B
T1 sequence: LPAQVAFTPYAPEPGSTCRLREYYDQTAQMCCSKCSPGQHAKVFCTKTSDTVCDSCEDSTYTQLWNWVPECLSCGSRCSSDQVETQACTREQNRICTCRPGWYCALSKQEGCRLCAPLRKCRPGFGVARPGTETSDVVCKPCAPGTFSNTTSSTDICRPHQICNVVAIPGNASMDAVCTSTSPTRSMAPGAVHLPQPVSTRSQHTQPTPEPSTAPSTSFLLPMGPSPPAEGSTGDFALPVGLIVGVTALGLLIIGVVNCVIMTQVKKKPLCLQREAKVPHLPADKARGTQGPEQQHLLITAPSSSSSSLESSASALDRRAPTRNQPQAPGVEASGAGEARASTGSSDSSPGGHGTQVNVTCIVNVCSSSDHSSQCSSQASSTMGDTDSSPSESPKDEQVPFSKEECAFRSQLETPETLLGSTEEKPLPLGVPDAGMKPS
Put plainly: equilibrium binding of the GpL fusion protein to HeLa-TNFR2 cells, 37 °C; unspecific binding on HeLa cells subtracted; cell-bound luciferase. As for the experimental part: FIG. 11—Binding properties of TNFR2-specific antibodies. (A) Equilibrium binding of the indicated anti-TNFR2 antibody GpL fusion proteins to cell expressed human TNFR2 at 37° C. (B) HeLa-TNFR2 cells were pretreated with the indicated amounts of anti-TNFR2 antibodies or remained untreated. […] Binding of the various constructs to untransfected HeLa cells was analyzed to obtain unspecific binding values.
Affinity of TNFR2-specific antibodies and antibody variants were also evaluated with HeLa cells and HeLa cells stably expressing human TNFR2. HeLa and HeLa-TNFR2 cells were seeded out in 24-well plates. Next day, the cells were challenged with the indicated concentrations of GpL-labelled TNFR2 antibodies for 1 hour at 37° C. To eliminate the unbound antibodies, the cells were washed 10 times with ice-cold PBS. The cells were then scratched and collected in 50 μl of medium (RPMI, 0.5% FCS) and transferred to black 96-well plates for measurement as mentioned above. The specific binding of different TNFR2-specific antibodies/antibody variants was calculated by subtracting the unspecific binding (values obtained from HeLa cells) from total binding (obtained from HeLa-TNFR2). The resulting values were fitted using the non-linear regression analysis option of GraphPad Prism 5.
The molecule B1 returned a Bmax of 890 kRLU and a Kd of 2.19 µg/mL.

Another assay addresses T1, Human TNFR2. Put plainly: cell-based or functional assay.
For B2, the “Activity II (tox)” value came to 20 ng/mL. In the case of B3, the “Activity II (tox)” value amounted to 10 ng/mL. With B4, the “Activity I (IL8)” value amounted to 0 ng/mL and the “Activity II (tox)” value was 0 ng/mL. B5: the “Activity I (IL8)” value was 10 ng/mL and the “Activity II (tox)” value came to 20 ng/mL. B6: the “Activity I (IL8)” value is 100 ng/mL. Turning to B7, the “Activity I (IL8)” value came out at 0 ng/mL and the “Activity II (tox)” value was determined as 0 ng/mL.

B8: the “Activity I (IL8)” value was determined as 0 ng/mL and the “Activity II (tox)” value came out at 0 ng/mL. As to B9, the “Activity I (IL8)” value is 50 ng/mL.

The values above are taken from patent publication US20240190983A1 (JULIUS MAXIMILIANS UNIVERSIT T W RZBURG, published 2024).
